# Source: patent US20250073239A1, “COMBINATION OF AN IMMUNOCYTOKINE COMPRISING IL-12 AND A KINASE INHIBITOR” (PHILOGEN S.P.A., priority 2022, published 2025)
# Key:
# [1] = rodents, cited from earlier work
# [2] = humans, patients with cancer; cited from earlier work
# [3] = Toxicity monitored by daily body weighing of MC-38 tumor-bearing mice; conditions: for weight loss: alone or with Ruxolitinib 75 mg/kg s.c., day 8, 11, 14
# Experimental: When tumors reached an average of about 50-100 mm^3, MC-38 tumor-bearing mice were randomized, and different treatments were started. Eight different groups (4/5 mice per group) received the following treatments: • (i) i.v. vehicle on day 8, 11 and 14 after tumor implantation • (ii) s.c. Ruxolitinib (75 mg/kg) on day 8, 11 and 14 after tumor implantation • (iii) i.v. L19-IL12 (0.6 mg/kg) on day 8, 11 and 14 after tumor implantation • (iv) i.v. L19-IL12 (0.9 mg/kg) on day 8, 11 and 14 after tumor implantation • (v) i.v. L19-IL12 (1.2 mg/kg) on day 8, 11 and 14 after tumor implantation • (vi) s.c Ruxolitinib (75 mg/kg) and i.v. L19-IL12 (0.6 mg/kg) on day 8, 11 and 14 after tumor implantation • (vii) s.c. Ruxolitinib (75 mg/kg) and i.v. L19-IL12 (0.9 mg/kg) on day 8, 11 and 14 after tumor implantation • (viii) s.c. Ruxolitinib (75 mg/kg) and i.v. L19-IL12 (1.2 mg/kg) on day 8, 11 and 14 after tumor implantation
# Ruxolitinib was always administered 10 minutes prior the subsequent administration of L19-IL12 at the three different dose levels.
# Toxicity of the different treatments was monitored by daily body weighing and general appearance of the animals.
# [4] = test system: MC-38 cells, derived from C57BL/6 murine colon adenocarcinoma cells; experiment: Therapy experiments: tumour volume in MC-38 tumor-bearing mice; assay type: in vivo, C57BL/6 mice; conditions: on day 8, 11 and 14
# Experimental: MC-38 cells, derived from C57BL/6 murine colon adenocarcinoma cells were cultured in DMEM medium supplemented with Fetal Bovine Serum (10%) and antibiotic-antimycotic (1%) following the supplier's protocol and kept in culture for no longer than 10 passages with a confluence lower than 90%. Eight-week-old female C57BL/6 mice were used for the experiment.
# MC-38 cells were grown to 80% confluence and detached with Trypsin-EDTA 0.05%. Cells were washed, counted and re-suspended in HBSS to a final concentration of 1×10^7 cells ml^−1. Aliquots of 1×10^6 cells (100 μl of the suspension) were injected subcutaneously in the right flank of each animal. Tumor volume was determined with the following formula: (length×width^2×0.5) measured with a caliper.
# Preparation of the tumor cells and tumor implantation have been done as described above in chapters 2.1 and 2.2.
molecule,measurement,setting,value
N#CC[C@H](C1CCCC1)n1cc(-c2ncnc3[nH]ccc23)cn1 [Ruxolitinib],blood half-life,[1]; after injection,less than 1 hour
same,time to complete wash-out from blood,[1],≤ 24 h
recombinant human IL-12: recombinant human interleukin-12 cytokine tested in clinical trials in patients with cancer,maximal tolerated dose,[2],0.5 μg/kg of body weight
"L19-IL12: fusion protein of the anti-EDB L19 antibody in single chain diabody format fused to single-chain murine IL-12 (SEQ ID NO 19) (protein, immunocytokine sequence) MWELEKDVYVVEVDWTPDAPGETVNLTCDTPEEDDITWTSDQRHGVIGSGKTLTITVKEFLDAGQYTCHKGGETLSHSHLLLHKKENGIWSTEILKNFKNKTFLKCEAPNYSGRFTCSWLVQRNMDLKFNIKSSSSSPDSRAVTCGMASLSAEKVTLDQRDYEKYSVSCQEDVTCPTAEETLPIELALEARQQNKYENYSTSFFIRDIIKPDPPKNLQMRPLKNSQVEVSWEYPDSWSTPHSYFSLKFFVRIQRKKEKMKETEEGCNQKGAFLVERTSTEVQCKGGNVCVQAQDRYYNSSCSKWACVPCRVRSGGGGSGGGGSGGGGSRVIPVSGPARCLSQSRNLLKTTDDMVKTAREKLKHYSCTAEDIDHEDITRDQTSTLKTCLPLELHKNESCLATRETSSTTRGSCLPPQKTSLMMTLCLGSIYEDLKMYQTEFQAINAALQNHNHQQIILDKGMLVAIDELMQSLNHNGETLRQKPPVGEADPYRVKMKLCILLHAFSTRVVTINRVMGYLSSAGSADGEVQLLESGGGLVQPGGSLRLSCAASGFTFSSFSMSWVRQAPGKGLEWVSSISGSSGTTYYADSVKGRFTISRDNSKNTLYLQMNSLRAEDTAVYYCAKPFPYFDYWGQGTLVTVSSGSSGGEIVLTQSPGTLSLSPGERATLSCRASQSVSSSFLAWYQQKPGQAPRLLIYYASSRATGIPDRFSGSGSGTDFTLTISRLEPEDFAVYYCQQTGRIPPTFGQGTKVEIKSSSSGSSSSGSSSSGEVQLLESGGGLVQPGGSLRLSCAASGFTFSSFSMSWVRQAPGKGLEWVSSISGSSGTTYYADSVKGRFTISRDNSKNTLYLQMNSLRAEDTAVYYCAKPFPYFDYWGQGTLVTVSSGSSGGEIVLTQSPGTLSLSPGERATLSCRASQSVSSSFLAWYQQKPGQAPRLLIYYASSRATGIPDRFSGSGSGTDFTLTISRLEPEDFAVYYCQQTGRIPPTFGQGTKVEIK",weight loss,[3]; L19-IL12 0.6 mg/kg i.v.,caused a weight loss
same,weight loss,[3]; L19-IL12 0.9 mg/kg i.v.,more severe toxicity
same,weight loss,[3]; L19-IL12 […] i.v.,more severe toxicity
same,weight loss,[3]; high dose L19-IL12 2.4 or 3 mg/kg i.v.,> 15%
same,outcome of the weight loss for the animals,[3]; high dose L19-IL12 2.4 or 3 mg/kg monotherapy,sacrifice of the mice for ethical reasons
same,tumor growth (antitumor activity),"[4]; L19-IL12 0.6, 0.9 or […] i.v., alone or with Ruxolitinib 75 mg/kg s.c. 10 min before",effectively prevented tumor growth
same,tumor growth (antitumor activity),"[4]; high dose L19-IL12 2.4 or 3 mg/kg i.v., alone or with Ruxolitinib 75 mg/kg s.c.",effectively prevented tumor growth
